Measured values as given in patent US20230053603A1 (ADC THERAPEUTICS, published 2023).

T1: Human KAAG1 (Kidney associated antigen 1) (human, UniProt Q9UBP8 1-84)
T1 sequence: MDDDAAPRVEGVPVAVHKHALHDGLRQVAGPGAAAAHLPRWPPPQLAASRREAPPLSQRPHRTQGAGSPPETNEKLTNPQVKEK

T2: rat Dlk-1 (rat, UniProt O70534 24-306, limits assumed)
T2 sequence (looked up): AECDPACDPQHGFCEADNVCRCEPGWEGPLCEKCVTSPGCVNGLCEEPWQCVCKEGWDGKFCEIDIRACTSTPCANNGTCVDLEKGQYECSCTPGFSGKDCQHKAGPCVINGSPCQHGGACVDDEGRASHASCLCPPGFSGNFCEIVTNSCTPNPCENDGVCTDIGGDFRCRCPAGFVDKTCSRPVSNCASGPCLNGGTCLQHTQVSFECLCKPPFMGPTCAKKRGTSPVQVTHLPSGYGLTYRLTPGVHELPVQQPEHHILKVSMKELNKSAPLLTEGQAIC


Experiments:
[1] = biological target: T1, Human KAAG1 (Kidney associated antigen …); assay: cell-based or functional assay
rat Dlk-1 = biological target: T2, rat Dlk-1; assay: not described (stated in the heading of the rat toxicology study)

Row | Binder | EC50, in vitro cytotoxicity (CellTiter-Glo) on MDA-MB-231 cells [1] | EC50, in vitro cytotoxicity (CellTiter-Glo) on SN12C cells [1] | binding result (rat Dlk-1)
1 | ConjA2 (anti-KAAG1 antibody 3A4 conjugated to drug linker 4 / PL1601) (antibody, human IgG1, kappa, V domains shown, PBD drug linker PL1601 (4) attached through the remodelled glycan (GalNAc-N3) on Asn297; average DAR of 1.9) VH: QIQLVQSGAEVKKPGASVKVSCKASGYTFTDDYMSWVKQAPGQGLEWIGDINPYNGDTNYNQKFKGKATLTVDKSTSTAYMELSSLRSEDTAVYYCARDPGAMDYWGQGTLVTVSS VL: DIVMTQTPLSLPVTPGEPASISCRSSQSLLHSNGNTYLEWYLQKPGQSPQLLIYTVSNRFSGVPDRFSGSGSGTDFTLKISRVEAEDVGVYYCFQGSHVPLTFGQGTKLEIKR | 0.226 mg/L | 0.0663 mg/L | –
2 | ConjA1 (anti-DLK1 antibody HuBa-1-3d conjugated to drug linker 4) (antibody, V domains shown, PBD drug linker 4 (PL1601) attached through the remodelled glycan (GalNAc-N3) on Asn297; average DAR of 1.87, also called anti-DLK1 ADC; ADC) VH: QVQLVQSGAEVKKPGASVKVSCKGSGYTFTDYAMHWVRQAPGQGLEWIGVISTYYGNTNYNQKFKGKATMTVDKSTSTAYMELRSLRSDDTAVYYCARGGLREYYYAMDYWGQGTMVTVSS VL: DIVMTQSPDSLAVSLGERATINCKSSQSLLNSSNQKNYLAWYQQKPGQPPKLLVYFASTRESGVPDRFSGSGSGTDFTLTISSLQAEDVAVYYCQQHYSTPPTFGQGTKLEIKR | – | – | no binding
